Measured values taken from publication PMC9858708, “Genetic and Molecular Interactions between H^ΔCT, a Novel Allele of the Notch Antagonist Hairless, and the Histone Chaperone Asf1 in Drosophila melanogaster” (Genes, 2023).

T1: Asf1-HA-MBP (full-length Drosophila Asf1) (Drosophila melanogaster, UniProt Q9V464 1-218)
T1 construct: Anti-silencing factor 1 (Asf1), Drosophila melanogaster, full length; HA-tagged region derived by PCR from the pJG4-5 construct; also called Asf-HA; HA-tagged Asf1; source: E. coli UT580, purified (amylose beads); not shown: HA, N-terminal, kept
T1 sequence (looked up): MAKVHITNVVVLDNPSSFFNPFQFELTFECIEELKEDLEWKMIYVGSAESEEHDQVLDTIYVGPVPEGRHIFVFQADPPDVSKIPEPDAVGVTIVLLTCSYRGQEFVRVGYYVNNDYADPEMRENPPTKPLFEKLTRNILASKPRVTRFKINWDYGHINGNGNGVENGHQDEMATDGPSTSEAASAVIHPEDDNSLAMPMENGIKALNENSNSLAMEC

T2: Asf1 (1–154) (D. melanogaster, UniProt Q9V464 1-154)
T2 construct: Anti-silencing factor 1 (Asf1), D. melanogaster, amino acids 1-154; modified pET-14p construct
T2 sequence (looked up): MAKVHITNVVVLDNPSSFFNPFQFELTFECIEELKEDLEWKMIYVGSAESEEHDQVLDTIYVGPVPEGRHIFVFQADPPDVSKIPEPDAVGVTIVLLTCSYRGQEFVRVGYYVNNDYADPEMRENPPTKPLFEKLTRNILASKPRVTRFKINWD


Assays:
Conditions in all cases: both partners purified
[1] = target: T3, Su(H)-GST fusion protein (Su(H) codons 288–594) (Drosophila melanogaster, UniProt P28159 288-594); experiment: co-IP; Myc-trap: purified Asf1-HA-MBP or Su(H)-GST mixed 1:1 with NTCTmyc-MBP peptides, about 10 min at 4 °C, 150 mM NaCl, 50 mM Tris pH7.5, 0.1% SDS; Myc-tagged H peptides trapped on anti-Myc nanobody magnetic beads 1 h at 4 °C; Western blot with anti-Myc, anti-HA, anti-GST
T3 construct: also called GST Su(H); GST-tagged Su(H); source: E. coli UT580, purified (glutathione-sepharose 4B)
T3 sequence (P28159 288-594): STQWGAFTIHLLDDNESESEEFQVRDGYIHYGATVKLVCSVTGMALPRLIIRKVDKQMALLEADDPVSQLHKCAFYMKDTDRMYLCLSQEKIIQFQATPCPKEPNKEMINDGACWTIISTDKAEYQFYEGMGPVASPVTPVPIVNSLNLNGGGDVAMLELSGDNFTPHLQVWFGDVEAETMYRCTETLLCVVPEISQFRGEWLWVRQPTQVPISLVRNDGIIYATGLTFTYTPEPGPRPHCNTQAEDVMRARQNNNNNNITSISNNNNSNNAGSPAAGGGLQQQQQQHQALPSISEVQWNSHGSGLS

[2] = target: T1, Asf1-HA-MBP (full-length Drosophila …); experiment: as above
Asf1 (1–154) [3] = target: T2, Asf1 (1–154); experiment: ITC; MicroCal VP-ITC, 25 °C, 20 mM HEPES pH 7.5, 150 mM NaCl; typically 100 μM Hairless in the syringe and 10 μM Asf1 in the cell; one-site binding model
Asf1 (1–154) [4] = target: T2, Asf1 (1–154); experiment: as above; remark: listed apart in the source

Binder	binding result [1]	binding result [2]	Ka (Asf1 (1–154) [3]) [M⁻¹]	Kd (Asf1 (1–154) [3]) [nM]	dH (Asf1 (1–154) [3]) [kcal/mol]	stoichiometry N (Asf1 (1–154) [4])
NTCTmyc-MBP (Hairless Ser 212 - Ile 369) (domain or fragment, Drosophila melanogaster, UniProt Q02308 212-369, looked up, Hairless (H), Drosophila melanogaster, NTCT region Ser 212 - Ile 369; source: E. coli UT580, purified (amylose beads); not shown: Myc, N-terminal, kept) SFDMGRTPISTHGNNSWGGYGGRLQFFKDGKFILELARSKDGDKSGWVSVTRKTFRPPSAATSATVTPTSAVTTAYPKNENSTSLSFSDDNSSIQSSPWQRDQPWKQSRPRRGISKELSLFFHRPRNSTLGRAALRTAARKRRRPHEPLTTSEDQQPI	binds	binds	–	–	–	–
H (232–358) (domain or fragment, Drosophila melanogaster, UniProt Q02308 232-358, looked up, Hairless (H), Drosophila, residues 232-358; His-SUMO fusion from a modified pET-28b+ vector; also called Hairless 232–358) GGRLQFFKDGKFILELARSKDGDKSGWVSVTRKTFRPPSAATSATVTPTSAVTTAYPKNENSTSLSFSDDNSSIQSSPWQRDQPWKQSRPRRGISKELSLFFHRPRNSTLGRAALRTAARKRRRPHE	–	–	250000	4200	-8.6	1
Hairless 315–369 myc-MBP (domain or fragment, Drosophila melanogaster, UniProt Q02308 315-369, looked up, Hairless (H), Drosophila melanogaster, residues 315-369; also called aa 315–369; source: E. coli UT580, purified (amylose beads); not shown: Myc, N-terminal, kept) PWKQSRPRRGISKELSLFFHRPRNSTLGRAALRTAARKRRRPHEPLTTSEDQQPI	–	binds	–	–	–	–
PWKQSRPRRGISKELSLFFHRPRNSTLGRAALRTAARKRRRPHE (domain or fragment, Drosophila melanogaster, UniProt Q02308 315-358, looked up, Hairless (H), Drosophila, residues 315-358; His-SUMO fusion from a modified pET-28b+ vector; also called Hairless 315–358) [H (315–358)]	–	–	680000	1700	-8.7	–
